The test has as its target human VEGFC (Vascular endothelial growth factor C) (human) (UniProt P49767). Briefly: cell-based or functional assay.

B1: 1E9 antibodies (monoclonal anti-VEGFC antibodies of the 1E9 hybridoma) (antibody, V domains shown)
VH: QAQLRQPGAELVKPGASVKLSCKASGYTFISYWMHWVKQRPGQGLEWIGEINPSNGRTNYNEKFKSKATLTVDRSSSTAYMQLSSLTSEDSAVYYCASTSLFYYAMNYWGQGTSVTVSS
VL: DVVMTQTPLSLTVSLGDQASISCRSSQSLVHSNGNTYLHWYLQKPGQSPKLLIYKVFNRLSGVPDRFSGSGSGTDFTLKISRVEAEDLGVYFCSQNTHVPWTFGGGTKLEIK
B1 registered a decrease in proliferation of cancer cells (MTT assay, A498, 786-O, MDA-MB231, 48 h) of 40%.

The values are drawn from patent publication US20230192833A1.
